Measured values: patent publication US20220204580A1 (AstraZeneca / MedImmune, published 2022)
Numbered stars: 1 amine (or outer) side, 2 acyl side, 3 side chain; on linkers, the order of the positions; unused ones are H or OH. Bridge positions count the residues as written; N and C are the ends. Square brackets hold non-standard residues; d marks the D form. Side chains are listed from the residue outwards. Ends that are not written are not given here. * marks the point of attachment. C18 diacid = O=C(O)CCCCCCCCCCCCCCCCC(=O)*; γGlu = O=C(O)[C@H](CCC(=O)[*:2])N[*:1]; Aib = CC(C)(N)C(=O)O

T1: human amylin receptor (calcitonin receptor co-expressed with receptor activity modifying protein, RAMP3) (human, UniProt P30988 25-474; O60896 24-148)
T1 sequence (looked up) 1: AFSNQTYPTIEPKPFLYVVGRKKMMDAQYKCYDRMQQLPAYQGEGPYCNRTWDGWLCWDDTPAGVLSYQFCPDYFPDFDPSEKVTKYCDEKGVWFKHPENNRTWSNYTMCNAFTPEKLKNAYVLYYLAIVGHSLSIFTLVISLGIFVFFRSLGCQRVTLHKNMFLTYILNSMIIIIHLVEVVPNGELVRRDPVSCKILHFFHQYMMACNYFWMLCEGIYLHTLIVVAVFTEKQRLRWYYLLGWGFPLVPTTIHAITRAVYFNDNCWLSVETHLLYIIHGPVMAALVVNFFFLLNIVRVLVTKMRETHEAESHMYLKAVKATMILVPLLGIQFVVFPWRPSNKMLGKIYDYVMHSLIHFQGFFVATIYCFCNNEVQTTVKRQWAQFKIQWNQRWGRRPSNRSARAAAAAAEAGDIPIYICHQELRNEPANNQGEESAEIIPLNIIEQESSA
T1 sequence (looked up) 2: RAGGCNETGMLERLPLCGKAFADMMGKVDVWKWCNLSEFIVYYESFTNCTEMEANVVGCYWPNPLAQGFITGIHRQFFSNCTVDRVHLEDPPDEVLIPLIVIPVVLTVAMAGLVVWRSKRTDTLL

T2: human calcitonin receptor (human, UniProt P30988 25-474)
T2 sequence (looked up): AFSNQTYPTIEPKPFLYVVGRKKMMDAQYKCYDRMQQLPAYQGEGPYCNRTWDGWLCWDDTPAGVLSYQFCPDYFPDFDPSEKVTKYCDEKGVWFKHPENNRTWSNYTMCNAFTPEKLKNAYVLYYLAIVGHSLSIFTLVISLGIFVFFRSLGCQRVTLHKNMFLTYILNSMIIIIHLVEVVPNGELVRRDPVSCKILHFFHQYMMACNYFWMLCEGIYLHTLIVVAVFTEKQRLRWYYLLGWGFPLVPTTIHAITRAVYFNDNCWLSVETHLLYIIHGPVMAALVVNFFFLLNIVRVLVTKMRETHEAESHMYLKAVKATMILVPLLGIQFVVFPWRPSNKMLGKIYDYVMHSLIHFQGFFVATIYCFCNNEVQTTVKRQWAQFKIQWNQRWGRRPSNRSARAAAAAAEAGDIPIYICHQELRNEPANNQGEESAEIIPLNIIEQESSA

B1: Peptide 80 (SEQ ID NO: 80) (peptide)
peptide: K([γGlu-C18 diacid])KCNTATCATQRLANFLVHSS[Aib]NFGPILPPT[Aib]VGSNTY-NH2
modifications: disulfide 3-8; N-terminus assumed
SMILES: CC[C@H](C)[C@H](NC(=O)[C@@H]1CCCN1C(=O)CNC(=O)[C@H](Cc1ccccc1)NC(=O)[C@H](CC(N)=O)NC(=O)C(C)(C)NC(=O)[C@H](CO)NC(=O)[C@H](CO)NC(=O)[C@H](Cc1c[nH]cn1)NC(=O)[C@@H](NC(=O)[C@H](CC(C)C)NC(=O)[C@H](Cc1ccccc1)NC(=O)[C@H](CC(N)=O)NC(=O)[C@H](C)NC(=O)[C@H](CC(C)C)NC(=O)[C@H](CCCNC(=N)N)NC(=O)[C@H](CCC(N)=O)NC(=O)[C@@H](NC(=O)[C@H](C)NC(=O)[C@@H]1CSSC[C@H](NC(=O)[C@H](CCCCN)NC(=O)[C@@H](N)CCCCNC(=O)CC[C@H](NC(=O)CCCCCCCCCCCCCCCCC(=O)O)C(=O)O)C(=O)N[C@@H](CC(N)=O)C(=O)N[C@@H]([C@@H](C)O)C(=O)N[C@@H](C)C(=O)N[C@@H]([C@@H](C)O)C(=O)N1)[C@@H](C)O)C(C)C)C(=O)N[C@@H](CC(C)C)C(=O)N1CCC[C@H]1C(=O)N1CCC[C@H]1C(=O)N[C@H](C(=O)NC(C)(C)C(=O)N[C@H](C(=O)NCC(=O)N[C@@H](CO)C(=O)N[C@@H](CC(N)=O)C(=O)N[C@H](C(=O)N[C@@H](Cc1ccc(O)cc1)C(N)=O)[C@@H](C)O)C(C)C)[C@@H](C)O
B2: Peptide 81 (SEQ ID NO: 81) (peptide)
peptide: K([γGlu-C18 diacid])KCNTATCATQRLANFLVHSS[Aib]NFGPILPPTNV[Aib]SNTY-NH2
modifications: disulfide 3-8; N-terminus assumed
SMILES: CC[C@H](C)[C@H](NC(=O)[C@@H]1CCCN1C(=O)CNC(=O)[C@H](Cc1ccccc1)NC(=O)[C@H](CC(N)=O)NC(=O)C(C)(C)NC(=O)[C@H](CO)NC(=O)[C@H](CO)NC(=O)[C@H](Cc1c[nH]cn1)NC(=O)[C@@H](NC(=O)[C@H](CC(C)C)NC(=O)[C@H](Cc1ccccc1)NC(=O)[C@H](CC(N)=O)NC(=O)[C@H](C)NC(=O)[C@H](CC(C)C)NC(=O)[C@H](CCCNC(=N)N)NC(=O)[C@H](CCC(N)=O)NC(=O)[C@@H](NC(=O)[C@H](C)NC(=O)[C@@H]1CSSC[C@H](NC(=O)[C@H](CCCCN)NC(=O)[C@@H](N)CCCCNC(=O)CC[C@H](NC(=O)CCCCCCCCCCCCCCCCC(=O)O)C(=O)O)C(=O)N[C@@H](CC(N)=O)C(=O)N[C@@H]([C@@H](C)O)C(=O)N[C@@H](C)C(=O)N[C@@H]([C@@H](C)O)C(=O)N1)[C@@H](C)O)C(C)C)C(=O)N[C@@H](CC(C)C)C(=O)N1CCC[C@H]1C(=O)N1CCC[C@H]1C(=O)N[C@H](C(=O)N[C@@H](CC(N)=O)C(=O)N[C@H](C(=O)NC(C)(C)C(=O)N[C@@H](CO)C(=O)N[C@@H](CC(N)=O)C(=O)N[C@H](C(=O)N[C@@H](Cc1ccc(O)cc1)C(N)=O)[C@@H](C)O)C(C)C)[C@@H](C)O

Experiments:
[1] = molecular target: T1, human amylin receptor (calcitonin …); test: cell-based or functional assay
[2] = molecular target: T2, human calcitonin receptor; test: cell-based or functional assay

Row | EC50 (cAMP production) [1] [nM] | Ratio (EC50 hCTR / EC50 hAMYR3) [1] | EC50 (cAMP production) [2] [nM] | Binder
1 | 0.407 | 7 | 2.97 | B1
2 | 0.404 | 7 | 2.76 | B2
